This is an account of results in publication doi:10.64898/2025.12.11.693645 (bioRxiv, 2025).

The data set concerns the molecule itself. Nature of the data set: crystal structure.

B1: full length HtpG from M. tuberculosis (HtpGMtb) (enzyme)
chain: MNAHVEQLEFQAEARQLLDLMVHSVYSNKDAFLRELISNASDALDKLRIEALRNKDLEVDTSDLHIEIDADKAARTLTVRDNGIGMAREEVVDLIGTLAKSGTAELRAQLREAKNAAASEELIGQFGIGFYSSFMVADKVQLLTRKAGESAATRWESSGEGTYTIESVEDAPQGTSVTLHLKPEDAEDDLHDYTSEWKIRNLVKKYSDFIAWPIRMDVERRTPASQEEGGEGGEETVTIETETLNSMKALWARPKEEVSEQEYKEFYKHVAHAWDDPLEIIAMKAEGTFEYQALLFIPSHAPFDLFDRDAHVGIQLYVKRVFIMGDCDQLMPEYLRFVKGVVDAQDMSLNVSREILQQDRQIKAIRRRLTKKVLSTIKDVQSSRPEDYRTFWTQFGRVLKEGLLSDIDNRETLLGISSFVSTYSEEEPTTLAEYVERMKDGQQQIFYATGETRQQLLKSPHLEAFKAKGYEVLLLTDPVDEVWVGMVPEFDGKPLQSVAKGEVDLSSEEDTSEAEREERQKEFADLLTWLQETLSDHVKEVRLSTRLTESPACLITDAFGMTPALARIYRASGQEVPVGKRILELNPSHPLVTGLRQAHQDRADDAEKSLAETAELLYGTALLAEGGALEDPARFAELLAERLARTL
Regarding B1, the binding result is “binds”.
